The target in one assay is T1, hCCR2b (human, UniProt P41597 1-374).
T1 chain: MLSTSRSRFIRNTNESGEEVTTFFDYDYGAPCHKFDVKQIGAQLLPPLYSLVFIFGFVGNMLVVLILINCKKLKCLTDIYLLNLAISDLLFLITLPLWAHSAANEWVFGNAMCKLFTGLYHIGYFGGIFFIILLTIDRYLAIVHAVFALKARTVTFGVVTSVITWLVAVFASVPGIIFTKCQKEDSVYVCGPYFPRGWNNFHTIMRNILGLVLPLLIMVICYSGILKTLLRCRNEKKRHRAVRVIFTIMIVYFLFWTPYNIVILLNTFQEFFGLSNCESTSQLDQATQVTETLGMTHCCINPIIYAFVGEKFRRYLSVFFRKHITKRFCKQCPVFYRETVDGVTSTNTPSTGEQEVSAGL
The experiment in a line: cell-based or functional assay.

For the next assay, the target named is hCCR5 (human, UniProt P51681 1-352). Kind of assay: cell-based or functional assay.

Consider two molecules from patent EP2718312B1 (TLA Targeted Immunotherapies AB, dated 2018).

Bridges are numbered along the chain shown (N, C = ends). The star is where a group is joined. Biotin = O=C1N[C@H]2[C@H](CS[C@H]2CCCCC(=O)*)N1

Sequence of hCCR5 (P51681 whole entry): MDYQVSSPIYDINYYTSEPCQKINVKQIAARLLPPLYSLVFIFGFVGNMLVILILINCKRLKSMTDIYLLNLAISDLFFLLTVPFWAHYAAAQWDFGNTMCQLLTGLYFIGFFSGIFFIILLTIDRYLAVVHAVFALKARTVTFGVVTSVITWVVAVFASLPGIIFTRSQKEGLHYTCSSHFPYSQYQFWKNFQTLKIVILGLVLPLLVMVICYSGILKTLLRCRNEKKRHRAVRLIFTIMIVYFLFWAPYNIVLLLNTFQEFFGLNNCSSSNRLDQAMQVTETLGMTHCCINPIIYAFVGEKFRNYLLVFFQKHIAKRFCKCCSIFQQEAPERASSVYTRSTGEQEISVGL

B1: recombinant native MCP-2 (ligand, human, UniProt P80075 24-99, looked up)
chain: QPDSVSIPITCCFNVINRKIPIQRLESYTRITNIQCPKEAVIFKTKRGKEVCADPKERWVRDSMKHLDQIFQNLKP
For B1, the “EC50, Aequorin assay (partial agonist)” value with hCCR2b was 23.5 nM.

B2: biotinRANTES (CCL5) (ligand)
chain: SPYSSDTTPCCFAYIARPLPRAHIKEYFYTSGKCSNPAVVFVTRKNRQVCANPEKKWVREYINSLEK(Biotin)S-OH
modifications: disulfide 10-34, 11-50; also: TFA salt
In the case of B2, in the assay with hCCR5, the “EC50, agonist activity in an Aequorin assay” value worked out at 0.5 nM.
